Experimental findings from paper PMC10798628 are described below.

Test [1] deals with receptor for activated protein C kinase 1 (RACK1) (human (endogenous in Caco-2)) (UniProt P63244).
The target is the same in test [2]. The source holds these as a separate data set.

On to “recombinant Trichinella spiralis serine proteinase with GST tag (rTsSPc)”, for which, in test [1], the inhibition rate of anti-RACK1 antibody on T. spiralis IIL invasion of the Caco-2 monolayer, compared to the PBS group turned out to be 5.12% and the inhibition rate of the RACK1 inhibitor HO on T. spiralis IIL invasion of the Caco-2 monolayer, compared to the PBS group stood at 7.37%.

In test [2], “recombinant Trichinella spiralis serine proteinase with GST tag (rTsSPc) (enzyme)” displayed an expression level of RACK1 in Caco-2 cells treated with rTsSPc, Western blot, increase compared to the PBS group of 2.11 folds and a p-ERK1/2 level in Caco-2 cells treated with rTsSPc, Western blot, increase compared to the PBS group of 18.3 folds.
